From PMC9482650, “Quantitative fragmentomics allow affinity mapping of interactomes” (Nature Communications, 2022)

T1: GRIP1_5, Q9Y3R0
T1 sequence (Q9Y3R0 568-668, limits assumed, looked up): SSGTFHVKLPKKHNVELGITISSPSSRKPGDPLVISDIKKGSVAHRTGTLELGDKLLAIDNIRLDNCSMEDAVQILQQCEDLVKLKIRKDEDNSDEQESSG

T2: APBA1_2, Q02410
T2 sequence (Q02410 742-832, limits assumed, looked up): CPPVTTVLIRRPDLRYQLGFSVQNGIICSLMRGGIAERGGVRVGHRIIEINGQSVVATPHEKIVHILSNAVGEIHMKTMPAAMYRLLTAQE

T3: LIN7C, Q9NUP9
T3 sequence (Q9NUP9 88-185, limits assumed, looked up): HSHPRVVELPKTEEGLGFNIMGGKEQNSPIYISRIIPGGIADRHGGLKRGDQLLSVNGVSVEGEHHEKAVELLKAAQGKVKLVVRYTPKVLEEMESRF

T4: DFNB31_3, Q9P202
T4 sequence (Q9P202 811-907, limits assumed, looked up): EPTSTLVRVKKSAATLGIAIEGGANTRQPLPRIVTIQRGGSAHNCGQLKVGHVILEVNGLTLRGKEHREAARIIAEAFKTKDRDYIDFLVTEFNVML

T5: CARD11, Q9BXL7
T5 sequence (Q9BXL7 662-765, limits assumed, looked up): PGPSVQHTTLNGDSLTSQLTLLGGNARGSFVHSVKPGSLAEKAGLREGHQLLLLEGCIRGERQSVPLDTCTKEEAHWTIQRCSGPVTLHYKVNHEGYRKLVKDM

T6: TJP3_3, O95049
T6 sequence (O95049 375-456, limits assumed, looked up): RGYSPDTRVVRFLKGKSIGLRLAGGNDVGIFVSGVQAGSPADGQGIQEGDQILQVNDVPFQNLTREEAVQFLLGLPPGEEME

T7: SYNJ2BP, P57105
T7 sequence (P57105 8-110, limits assumed, looked up): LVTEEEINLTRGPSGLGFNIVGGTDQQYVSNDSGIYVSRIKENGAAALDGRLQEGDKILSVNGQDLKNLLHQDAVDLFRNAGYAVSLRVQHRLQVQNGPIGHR

T8: GRIP1_2, Q9Y3R0
T8 sequence (Q9Y3R0 145-248, limits assumed, looked up): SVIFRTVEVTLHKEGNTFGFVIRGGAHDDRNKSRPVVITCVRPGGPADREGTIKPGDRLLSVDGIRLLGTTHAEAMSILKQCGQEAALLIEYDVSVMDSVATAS

T9: GRIP1_3, Q9Y3R0
T9 sequence (Q9Y3R0 247-346, limits assumed, looked up): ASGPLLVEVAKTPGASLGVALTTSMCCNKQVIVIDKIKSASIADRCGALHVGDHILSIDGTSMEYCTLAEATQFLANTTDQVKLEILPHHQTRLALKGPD

T10: MPP7, Q5T2T1
T10 sequence (Q5T2T1 134-230, limits assumed, looked up): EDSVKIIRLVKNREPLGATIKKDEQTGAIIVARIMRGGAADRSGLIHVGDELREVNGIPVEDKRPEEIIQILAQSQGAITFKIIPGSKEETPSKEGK


Experiments:
Assay in all cases: holdup assay
Set-up in all cases: key: below the threshold = too weak to quantify, mostly under pKd 3.1 to 4
Conditions in all cases: plain residues with an end cap or a label only (N-terminal biotin on a linker: ado-ado)
MAGI2_4, Q86UL8 = target: MAGI2_4, Q86UL8
MAGI2_2, Q86UL8 = target: MAGI2_2, Q86UL8
FRMPD3, Q5JV73 = target: FRMPD3, Q5JV73
GORASP2, Q9H8Y8 = target: GORASP2, Q9H8Y8
LAP2, Q96RT1 = target: LAP2, Q96RT1
PDZRN4_1, Q6ZMN7 = target: PDZRN4_1, Q6ZMN7
GRID2IP_1, A4D2P6 = target: GRID2IP_1, A4D2P6
SCRIB_2, Q14160 = target: SCRIB_2, Q14160
HTRA2, O43464 = target: HTRA2, O43464
GRIP1_5, Q9Y3R0 = target: T1, GRIP1_5, Q9Y3R0
APBA1_2, Q02410 = target: T2, APBA1_2, Q02410
LIN7C, Q9NUP9 = target: T3, LIN7C, Q9NUP9
DFNB31_3, Q9P202 = target: T4, DFNB31_3, Q9P202
CARD11, Q9BXL7 = target: T5, CARD11, Q9BXL7
TJP3_3, O95049 = target: T6, TJP3_3, O95049
TJP2_1, Q9UDY2 = target: TJP2_1, Q9UDY2
GRIP2_7, Q9C0E4 = target: GRIP2_7, Q9C0E4
SNX27, Q96L92 = target: SNX27, Q96L92
SYNJ2BP, P57105 = target: T7, SYNJ2BP, P57105
AHNAK1, Q09666 = target: AHNAK1, Q09666
DLG1_3, Q12959 = target: DLG1_3, Q12959
DLG4_3, P78352 = target: DLG4_3, P78352
GRIP1_2, Q9Y3R0 = target: T8, GRIP1_2, Q9Y3R0
GRIP1_3, Q9Y3R0 = target: T9, GRIP1_3, Q9Y3R0
SCRIB_1, Q14160 = target: SCRIB_1, Q14160
MPP7, Q5T2T1 = target: T10, MPP7, Q5T2T1
GRIP2_3, Q9C0E4 = target: GRIP2_3, Q9C0E4
Sequence of GRIP2_3, Q9C0E4 (Q9C0E4 238-339): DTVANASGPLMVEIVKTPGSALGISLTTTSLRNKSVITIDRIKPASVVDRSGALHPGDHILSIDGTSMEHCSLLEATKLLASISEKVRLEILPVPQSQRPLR

Sequence of DLG1_3, Q12959 (Q12959 457-571): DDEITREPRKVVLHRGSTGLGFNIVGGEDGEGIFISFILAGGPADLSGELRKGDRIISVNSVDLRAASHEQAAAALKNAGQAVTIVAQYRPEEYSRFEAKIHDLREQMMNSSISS
Sequence of MAGI2_4, Q86UL8 (Q86UL8 772-865): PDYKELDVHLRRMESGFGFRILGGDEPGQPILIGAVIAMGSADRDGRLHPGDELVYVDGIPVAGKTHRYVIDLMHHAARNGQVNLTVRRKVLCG
Sequence of TJP2_1, Q9UDY2 (Q9UDY2 24-128): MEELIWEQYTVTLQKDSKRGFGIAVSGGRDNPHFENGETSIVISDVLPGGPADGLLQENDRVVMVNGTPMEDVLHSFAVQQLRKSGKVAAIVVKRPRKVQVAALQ
Sequence of FRMPD3, Q5JV73 (Q5JV73 12-100): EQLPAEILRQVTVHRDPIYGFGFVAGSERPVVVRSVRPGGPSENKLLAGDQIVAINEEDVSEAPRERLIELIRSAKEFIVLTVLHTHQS
Sequence of DLG4_3, P78352 (P78352 306-403): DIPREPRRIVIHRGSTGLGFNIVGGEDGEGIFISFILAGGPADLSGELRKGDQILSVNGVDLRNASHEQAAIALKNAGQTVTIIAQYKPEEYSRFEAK
Sequence of LAP2, Q96RT1 (Q96RT1 other isoform, or with tags, fused parts or gaps): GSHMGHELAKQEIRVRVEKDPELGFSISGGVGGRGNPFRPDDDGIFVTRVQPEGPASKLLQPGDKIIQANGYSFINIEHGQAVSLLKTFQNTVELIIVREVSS
Sequence of HTRA2, O43464 (O43464 355-458): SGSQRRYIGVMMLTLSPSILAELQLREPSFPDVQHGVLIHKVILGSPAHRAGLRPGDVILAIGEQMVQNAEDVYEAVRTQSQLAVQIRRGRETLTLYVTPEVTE
Sequence of MAGI2_2, Q86UL8 (Q86UL8 410-522): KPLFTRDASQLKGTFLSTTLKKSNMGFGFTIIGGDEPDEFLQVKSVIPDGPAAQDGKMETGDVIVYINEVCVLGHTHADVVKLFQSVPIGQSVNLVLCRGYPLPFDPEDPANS
Sequence of SCRIB_1, Q14160 (Q14160 718-814): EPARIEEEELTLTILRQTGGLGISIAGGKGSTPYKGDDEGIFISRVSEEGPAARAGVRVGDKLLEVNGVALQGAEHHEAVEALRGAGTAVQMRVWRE
Sequence of GRID2IP_1, A4D2P6 (A4D2P6 1-87): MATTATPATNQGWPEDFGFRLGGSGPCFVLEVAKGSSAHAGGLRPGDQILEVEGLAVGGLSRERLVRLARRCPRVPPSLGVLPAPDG
Sequence of SCRIB_2, Q14160 (Q14160 857-960): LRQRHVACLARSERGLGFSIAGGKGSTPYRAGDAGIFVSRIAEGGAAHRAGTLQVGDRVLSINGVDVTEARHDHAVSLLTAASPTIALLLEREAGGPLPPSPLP
Sequence of AHNAK1, Q09666 (Q09666 4-100): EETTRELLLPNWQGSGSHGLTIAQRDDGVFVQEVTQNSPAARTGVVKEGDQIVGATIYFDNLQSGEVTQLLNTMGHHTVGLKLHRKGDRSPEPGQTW
Sequence of PDZRN4_1, Q6ZMN7 (Q6ZMN7 213-318): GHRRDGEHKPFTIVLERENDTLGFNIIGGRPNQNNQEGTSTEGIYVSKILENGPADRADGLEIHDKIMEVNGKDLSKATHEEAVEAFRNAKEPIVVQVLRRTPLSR
Sequence of GRIP2_7, Q9C0E4 (Q9C0E4 934-1023): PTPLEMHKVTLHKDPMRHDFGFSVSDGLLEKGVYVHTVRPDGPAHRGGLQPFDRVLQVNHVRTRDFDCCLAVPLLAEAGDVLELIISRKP

Binder | pKd (MAGI2_4, Q86UL8) | pKd (MAGI2_2, Q86UL8) | pKd (FRMPD3, Q5JV73) | pKd (GORASP2, Q9H8Y8) | pKd (LAP2, Q96RT1) | pKd (PDZRN4_1, Q6ZMN7) | pKd (GRID2IP_1, A4D2P6) | pKd (SCRIB_2, Q14160) | pKd (HTRA2, O43464) | pKd (GRIP1_5, Q9Y3R0) | pKd (APBA1_2, Q02410) | pKd (LIN7C, Q9NUP9) | pKd (DFNB31_3, Q9P202) | pKd (CARD11, Q9BXL7) | pKd (TJP3_3, O95049) | pKd (TJP2_1, Q9UDY2) | pKd (GRIP2_7, Q9C0E4) | pKd (SNX27, Q96L92) | pKd (SYNJ2BP, P57105) | pKd (AHNAK1, Q09666) | further results
YNNCLEILRV [DCAF7, P61962] | below the threshold | below the threshold | below the threshold | 5.55 | below the threshold | below the threshold | below the threshold | below the threshold | 4.66 | below the threshold | below the threshold | below the threshold | below the threshold | below the threshold | below the threshold | below the threshold | below the threshold | below the threshold | below the threshold | below the threshold | pKd (DLG1_3, Q12959): below the threshold; pKd (DLG4_3, P78352): below the threshold; pKd (GRIP1_2, Q9Y3R0): below the threshold; pKd (GRIP1_3, Q9Y3R0): below the threshold; pKd (SCRIB_1, Q14160): below the threshold; pKd (MPP7, Q5T2T1): below the threshold; pKd (GRIP2_3, Q9C0E4): below the threshold
RRISSLESEV [GRIN2C, Q14957] | 3.95 | 4.58 | below the threshold | below the threshold | 4.46 | 4.17 | below the threshold | 4.28 | below the threshold | below the threshold | 3.75 | 4.29 | below the threshold | below the threshold | below the threshold | below the threshold | below the threshold | 4.97 | 5.38 | below the threshold | pKd (DLG1_3, Q12959): 4.09; pKd (DLG4_3, P78352): 3.78; pKd (GRIP1_2, Q9Y3R0): below the threshold; pKd (GRIP1_3, Q9Y3R0): below the threshold; pKd (SCRIB_1, Q14160): 4.69; pKd (MPP7, Q5T2T1): below the threshold; pKd (GRIP2_3, Q9C0E4): below the threshold
LGRSTPQSEV [DGKH, Q86XP1] | 3.52 | 3.58 | below the threshold | below the threshold | below the threshold | below the threshold | below the threshold | below the threshold | below the threshold | below the threshold | 3.64 | below the threshold | below the threshold | below the threshold | below the threshold | below the threshold | below the threshold | 3.89 | 4.49 | below the threshold | pKd (DLG1_3, Q12959): below the threshold; pKd (DLG4_3, P78352): below the threshold; pKd (GRIP1_2, Q9Y3R0): below the threshold; pKd (GRIP1_3, Q9Y3R0): below the threshold; pKd (SCRIB_1, Q14160): 3.77; pKd (MPP7, Q5T2T1): below the threshold; pKd (GRIP2_3, Q9C0E4): below the threshold
PPYRHRNTVV [ERBB4, Q15303] | 4.43 | 4.6 | below the threshold | 4.26 | below the threshold | below the threshold | 3.89 | below the threshold | below the threshold | below the threshold | 3.53 | below the threshold | below the threshold | below the threshold | below the threshold | 3.81 | below the threshold | 4.42 | 4.36 | below the threshold | pKd (DLG1_3, Q12959): 4.01; pKd (DLG4_3, P78352): 4.23; pKd (GRIP1_2, Q9Y3R0): below the threshold; pKd (GRIP1_3, Q9Y3R0): below the threshold; pKd (SCRIB_1, Q14160): 3.92; pKd (MPP7, Q5T2T1): below the threshold; pKd (GRIP2_3, Q9C0E4): below the threshold
